# Experimental data from PMC9352680, “A comprehensive thermodynamic model for RNA binding by the Saccharomyces cerevisiae Pumilio protein PUF4”.
# T1: PUF4 RNA-binding domain (Saccharomyces cerevisiae, UniProt P25339 537-888)
# T1 sequence: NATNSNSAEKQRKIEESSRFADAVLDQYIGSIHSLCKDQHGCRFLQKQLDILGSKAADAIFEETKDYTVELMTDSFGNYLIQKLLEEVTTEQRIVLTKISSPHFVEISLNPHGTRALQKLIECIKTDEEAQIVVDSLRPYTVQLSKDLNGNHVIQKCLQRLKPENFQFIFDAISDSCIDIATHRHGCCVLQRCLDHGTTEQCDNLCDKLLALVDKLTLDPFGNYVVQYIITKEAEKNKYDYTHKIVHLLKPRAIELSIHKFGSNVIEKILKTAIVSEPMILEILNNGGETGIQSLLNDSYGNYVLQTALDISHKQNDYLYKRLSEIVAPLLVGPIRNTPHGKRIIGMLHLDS
# Target: T1, PUF4 RNA-binding domain
# Assay: Mg; RNA-MaP; 20 mM Na-HEPES pH 7.4, 30 mM KOAc, 0.75 mM MgCl2, 0.1% Tween-20, 5% glycerol, 0.1 mg/mL BSA, 2 mM DTT; 25 C; 0.0125-409.6 nM protein
# Details: tags: N-His6-TEV cleaved; C-SNAP kept, Cy3B-labelled; label: tethered on chip by stalled RNA polymerase
row,Binder,Kd
1,UCUCUUCCUGUAUAUAACUCUCUU (ssRNA) [Id_ii_S1_P3E.2_K3.1_C3.2_[T-1C]_H3.1_A3.1_F3.1_T3.2_[T9A]_[A10C]],6.69 nM
2,UCUCUUAUUGUAUAUAGCUCUCUU (ssRNA) [Id_ii_S1_P3E.2_K3.1_C3.2_[C-2A]_H3.1_A3.1_F3.1_T3.2_[T9G]_[A10C]],12.1 nM
3,UCUCUUCCUGUAUAUACCUCUCUU (ssRNA) [Id_ii_S1_P3E.2_K3.1_C3.2_[T-1C]_H3.1_A3.1_F3.1_T3.2_[T9C]_[A10C]],24.3 nM
4,UCUCUUAAUGUAUAUAUUUCUCUU (ssRNA) [Id_ii_S1_P3E.2_K3.1_C3.2_[C-2A]_[T-1A]_H3.1_A3.1_F3.1_T3.2_[A10T]],13.4 nM
5,UCUCUUACUGUAUAUAACUCUCUU (ssRNA) [Id_ii_S1_P3E.2_K3.1_C3.2_[C-2A]_[T-1C]_H3.1_A3.1_F3.1_T3.2_[T9A]_[A10C]],26.7 nM
6,UCUCUUACUGUAUAUAGCUCUCUU (ssRNA) [Id_ii_S1_P3E.2_K3.1_C3.2_[C-2A]_[T-1C]_H3.1_A3.1_F3.1_T3.2_[T9G]_[A10C]],9.36 nM
7,UCUCUUCGUGUAUAUAUCUCUCUU (ssRNA) [Id_ii_S1_P3E.2_K3.1_C3.2_[T-1G]_H3.1_A3.1_F3.1_T3.2_[A10C]],7.58 nM
8,UCUCUUACUGUAUAUACUUCUCUU (ssRNA) [Id_ii_S1_P3E.2_K3.1_C3.2_[C-2A]_[T-1C]_H3.1_A3.1_F3.1_T3.2_[T9C]_[A10T]],15 nM
9,UCUCUUAUUGUAUAUAUGUCUCUU (ssRNA) [Id_ii_S1_P3E.2_K3.1_C3.2_[C-2A]_H3.1_A3.1_F3.1_T3.2_[A10G]],12.3 nM
10,UCUCUUUUUUUAUUAUCUCUU (ssRNA) [Ib_S1_P4E.1_K4.1_C4.1_H4.1_[G2T]_[A4T]_A4.1_F4.1_T4.1],> 2300 nM
11,UCUCUUACUGUAUAUAAAUCUCUU (ssRNA) [Id_ii_S1_P3E.2_K3.1_C3.2_[C-2A]_[T-1C]_H3.1_A3.1_F3.1_T3.2_[T9A]],16.3 nM
12,UCUCUUCAUGUAUAUACUUCUCUU (ssRNA) [Id_ii_S1_P3E.2_K3.1_C3.2_[T-1A]_H3.1_A3.1_F3.1_T3.2_[T9C]_[A10T]],13.2 nM
13,UCUCUUAUUGUAUAUAGUUCUCUU (ssRNA) [Id_ii_S1_P3E.2_K3.1_C3.2_[C-2A]_H3.1_A3.1_F3.1_T3.2_[T9G]_[A10T]],6.25 nM
14,UCUCUUCCUGUAUAUAAUUCUCUU (ssRNA) [Id_ii_S1_P3E.2_K3.1_C3.2_[T-1C]_H3.1_A3.1_F3.1_T3.2_[T9A]_[A10T]],5.34 nM
15,UCUCUUUUUGUAUUAUCUCUU (ssRNA) [Ib_S1_P4E.1_K4.1_C4.1_H4.1_[G2T]_[A4G]_A4.1_F4.1_T4.1],25.7 nM
16,UCUCUUCCUGUAUAUACUUCUCUU (ssRNA) [Id_ii_S1_P3E.2_K3.1_C3.2_[T-1C]_H3.1_A3.1_F3.1_T3.2_[T9C]_[A10T]],6.95 nM
17,UCUCUUAAUGUAUAUAAUUCUCUU (ssRNA) [Id_ii_S1_P3E.2_K3.1_C3.2_[C-2A]_[T-1A]_H3.1_A3.1_F3.1_T3.2_[T9A]_[A10T]],8.64 nM
18,UCUCUUAUUGUAUAUAUAUCUCUU (ssRNA) [Id_ii_S1_P3E.2_K3.1_C3.2_[C-2A]_H3.1_A3.1_F3.1_T3.2],4.87 nM
19,UCUCUUUGUAUCUUAUCUCUU (ssRNA) [Ic_S1_P4E.1_K4.1_C4.1_H4.1_A4.1_[A6C]_F4.1_T4.1],4.1 nM
20,UCUCUUUAUCUAUUAUCUCUU (ssRNA) [Ib_S1_P4E.1_K4.1_C4.1_H4.1_[G2A]_[A4C]_A4.1_F4.1_T4.1],> 2300 nM
21,UCUCUUCCUGUAUAUAAGUCUCUU (ssRNA) [Id_ii_S1_P3E.2_K3.1_C3.2_[T-1C]_H3.1_A3.1_F3.1_T3.2_[T9A]_[A10G]],12.9 nM

row,Binder,Kd
1,UCUCUUAUUGUAUAUACCUCUCUU (ssRNA) [Id_ii_S1_P3E.2_K3.1_C3.2_[C-2A]_H3.1_A3.1_F3.1_T3.2_[T9C]_[A10C]],17.6 nM
2,UCUCUUCAUGUAUAUACCUCUCUU (ssRNA) [Id_ii_S1_P3E.2_K3.1_C3.2_[T-1A]_H3.1_A3.1_F3.1_T3.2_[T9C]_[A10C]],17.7 nM
3,UCUCUUACUGUAUAUAUUUCUCUU (ssRNA) [Id_ii_S1_P3E.2_K3.1_C3.2_[C-2A]_[T-1C]_H3.1_A3.1_F3.1_T3.2_[A10T]],10.8 nM
4,UCUCUUAAUGUAUAUAAAUCUCUU (ssRNA) [Id_ii_S1_P3E.2_K3.1_C3.2_[C-2A]_[T-1A]_H3.1_A3.1_F3.1_T3.2_[T9A]],20.8 nM
5,UCUCUUACUGUAUAUACAUCUCUU (ssRNA) [Id_ii_S1_P3E.2_K3.1_C3.2_[C-2A]_[T-1C]_H3.1_A3.1_F3.1_T3.2_[T9C]],22.8 nM
6,UCUCUUACUGUAUAUACCUCUCUU (ssRNA) [Id_ii_S1_P3E.2_K3.1_C3.2_[C-2A]_[T-1C]_H3.1_A3.1_F3.1_T3.2_[T9C]_[A10C]],11.9 nM
7,UCUCUUCGUGUAUAUAAAUCUCUU (ssRNA) [Id_ii_S1_P3E.2_K3.1_C3.2_[T-1G]_H3.1_A3.1_F3.1_T3.2_[T9A]],11.9 nM
8,UCUCUUACUGUAUAUAUGUCUCUU (ssRNA) [Id_ii_S1_P3E.2_K3.1_C3.2_[C-2A]_[T-1C]_H3.1_A3.1_F3.1_T3.2_[A10G]],17.2 nM
9,UCUCUUCCUGUAUAUAUAUCUCUU (ssRNA) [Id_ii_S1_P3E.2_K3.1_C3.2_[T-1C]_H3.1_A3.1_F3.1_T3.2],3.76 nM
10,UCUCUUAGUGUAUAUAUCUCUCUU (ssRNA) [Id_ii_S1_P3E.2_K3.1_C3.2_[C-2A]_[T-1G]_H3.1_A3.1_F3.1_T3.2_[A10C]],13.4 nM
11,UCUCUUAGUGUAUAUAUUUCUCUU (ssRNA) [Id_ii_S1_P3E.2_K3.1_C3.2_[C-2A]_[T-1G]_H3.1_A3.1_F3.1_T3.2_[A10T]],10 nM
12,UCUCUUAUUGUAUAUAUUUCUCUU (ssRNA) [Id_ii_S1_P3E.2_K3.1_C3.2_[C-2A]_H3.1_A3.1_F3.1_T3.2_[A10T]],9.49 nM
13,UCUCUUCGUGUAUAUAAUUCUCUU (ssRNA) [Id_ii_S1_P3E.2_K3.1_C3.2_[T-1G]_H3.1_A3.1_F3.1_T3.2_[T9A]_[A10T]],8.53 nM
14,UCUCUUAUUGUAUAUAUCUCUCUU (ssRNA) [Id_ii_S1_P3E.2_K3.1_C3.2_[C-2A]_H3.1_A3.1_F3.1_T3.2_[A10C]],8.52 nM
15,UCUCUUCCUGUAUAUACAUCUCUU (ssRNA) [Id_ii_S1_P3E.2_K3.1_C3.2_[T-1C]_H3.1_A3.1_F3.1_T3.2_[T9C]],17.7 nM
16,UCUCUUACUGUAUAUAUCUCUCUU (ssRNA) [Id_ii_S1_P3E.2_K3.1_C3.2_[C-2A]_[T-1C]_H3.1_A3.1_F3.1_T3.2_[A10C]],9.47 nM
17,UCUCUUCGUGUAUAUAUAUCUCUU (ssRNA) [Id_ii_S1_P3E.2_K3.1_C3.2_[T-1G]_H3.1_A3.1_F3.1_T3.2],5.37 nM
18,UCUCUUCAUGUAUAUAACUCUCUU (ssRNA) [Id_ii_S1_P3E.2_K3.1_C3.2_[T-1A]_H3.1_A3.1_F3.1_T3.2_[T9A]_[A10C]],16.9 nM
19,UCUCUUCCUGUAUAUAUUUCUCUU (ssRNA) [Id_ii_S1_P3E.2_K3.1_C3.2_[T-1C]_H3.1_A3.1_F3.1_T3.2_[A10T]],5.94 nM
20,UCUCUUAUUGUAUAUACGUCUCUU (ssRNA) [Id_ii_S1_P3E.2_K3.1_C3.2_[C-2A]_H3.1_A3.1_F3.1_T3.2_[T9C]_[A10G]],26.9 nM
21,UCUCUUCGUGUAUAUACCUCUCUU (ssRNA) [Id_ii_S1_P3E.2_K3.1_C3.2_[T-1G]_H3.1_A3.1_F3.1_T3.2_[T9C]_[A10C]],17.5 nM

row,Binder,Kd
1,UCUCUUCGUGUAUAUAUUUCUCUU (ssRNA) [Id_ii_S1_P3E.2_K3.1_C3.2_[T-1G]_H3.1_A3.1_F3.1_T3.2_[A10T]],8.56 nM
2,UCUCUUUAUGUAUUAUCUCUU (ssRNA) [Ib_S1_P4E.1_K4.1_C4.1_H4.1_[G2A]_[A4G]_A4.1_F4.1_T4.1],36 nM
3,UCUCUUCCUGUAUAUAUGUCUCUU (ssRNA) [Id_ii_S1_P3E.2_K3.1_C3.2_[T-1C]_H3.1_A3.1_F3.1_T3.2_[A10G]],7.59 nM
4,UCUCUUCAUGUAUAUAGCUCUCUU (ssRNA) [Id_ii_S1_P3E.2_K3.1_C3.2_[T-1A]_H3.1_A3.1_F3.1_T3.2_[T9G]_[A10C]],5.33 nM
5,UCUCUUCCUGUAUAUAUCUCUCUU (ssRNA) [Id_ii_S1_P3E.2_K3.1_C3.2_[T-1C]_H3.1_A3.1_F3.1_T3.2_[A10C]],4.74 nM
6,UCUCUUAUUGUAUAUACUUCUCUU (ssRNA) [Id_ii_S1_P3E.2_K3.1_C3.2_[C-2A]_H3.1_A3.1_F3.1_T3.2_[T9C]_[A10T]],10.3 nM
7,UCUCUUCAUGUAUAUAAUUCUCUU (ssRNA) [Id_ii_S1_P3E.2_K3.1_C3.2_[T-1A]_H3.1_A3.1_F3.1_T3.2_[T9A]_[A10T]],11.6 nM
8,UCUCUUACUGUAUAUACGUCUCUU (ssRNA) [Id_ii_S1_P3E.2_K3.1_C3.2_[C-2A]_[T-1C]_H3.1_A3.1_F3.1_T3.2_[T9C]_[A10G]],45.4 nM
9,UCUCUUUGCGUAUUAUCUCUU (ssRNA) [Ib_S1_P4E.1_K4.1_C4.1_H4.1_[T3C]_[A4G]_A4.1_F4.1_T4.1],> 2300 nM
10,UCUCUUCGUGUAUAUAGUUCUCUU (ssRNA) [Id_ii_S1_P3E.2_K3.1_C3.2_[T-1G]_H3.1_A3.1_F3.1_T3.2_[T9G]_[A10T]],3.77 nM
11,UCUCUUCCUGUAUAUACGUCUCUU (ssRNA) [Id_ii_S1_P3E.2_K3.1_C3.2_[T-1C]_H3.1_A3.1_F3.1_T3.2_[T9C]_[A10G]],17.4 nM
12,UCUCUUAAUGUAUAUACCUCUCUU (ssRNA) [Id_ii_S1_P3E.2_K3.1_C3.2_[C-2A]_[T-1A]_H3.1_A3.1_F3.1_T3.2_[T9C]_[A10C]],16.5 nM
13,UCUCUUCGUGUAUAUAGGUCUCUU (ssRNA) [Id_ii_S1_P3E.2_K3.1_C3.2_[T-1G]_H3.1_A3.1_F3.1_T3.2_[T9G]_[A10G]],9.62 nM
14,UCUCUUAUUGUAUAUAACUCUCUU (ssRNA) [Id_ii_S1_P3E.2_K3.1_C3.2_[C-2A]_H3.1_A3.1_F3.1_T3.2_[T9A]_[A10C]],12.9 nM
15,UCUCUUCCUGUAUAUAGUUCUCUU (ssRNA) [Id_ii_S1_P3E.2_K3.1_C3.2_[T-1C]_H3.1_A3.1_F3.1_T3.2_[T9G]_[A10T]],4.07 nM
16,UCUCUUCAUGUAUAUAGUUCUCUU (ssRNA) [Id_ii_S1_P3E.2_K3.1_C3.2_[T-1A]_H3.1_A3.1_F3.1_T3.2_[T9G]_[A10T]],5.84 nM
17,UCUCUUAAUGUAUAUAUCUCUCUU (ssRNA) [Id_ii_S1_P3E.2_K3.1_C3.2_[C-2A]_[T-1A]_H3.1_A3.1_F3.1_T3.2_[A10C]],10.4 nM
18,UCUCUUCAUGUAUAUAAGUCUCUU (ssRNA) [Id_ii_S1_P3E.2_K3.1_C3.2_[T-1A]_H3.1_A3.1_F3.1_T3.2_[T9A]_[A10G]],6.69 nM
19,UCUCUUAAUGUAUAUAUGUCUCUU (ssRNA) [Id_ii_S1_P3E.2_K3.1_C3.2_[C-2A]_[T-1A]_H3.1_A3.1_F3.1_T3.2_[A10G]],12.7 nM
20,UCUCUUAUUGUAUAUAAUUCUCUU (ssRNA) [Id_ii_S1_P3E.2_K3.1_C3.2_[C-2A]_H3.1_A3.1_F3.1_T3.2_[T9A]_[A10T]],12.2 nM
21,UCUCUUAUUGUAUAUAAAUCUCUU (ssRNA) [Id_ii_S1_P3E.2_K3.1_C3.2_[C-2A]_H3.1_A3.1_F3.1_T3.2_[T9A]],13.9 nM
